Laboratory results published in US20250276081A1, “Mucin-Active Proteases and Methods of Use” (priority 2022, published 2025).

Assays:
[1] = biological target: Annexin A1 (ANXA1) (human) (UniProt P04083)
CD98 (human) = CD98 (human) (UniProt P08195)
OVCAR-3 cells = assay: Bioactive compound library screen and STACK cell death analysis ± StcE; type: cell-based
Description: Bioactive compound library screen. A library of 261 bioactive compounds (Selleck Chemicals) was stored at −80° C. The library was re-formatted from 96-well to 384-well format using a Versette automated liquid handler configured with a 96-channel pipetting head and diluted to 2 mM in DMSO. The day before the screen, 5×10^3 OVCAR-3^N cells/well were seeded into two 384-well plates in 45 μL of medium. The next day, the medium was removed and replaced with medium containing 20 nM Sytox Green and compounds from a freshly thawed library master stock plate (1 compound/well) were added to a final concentration of 500 nM. One plate was co-treated with vehicle (PBS) and the other with 50 nM StcE. Plates were imaged immediately and every 2 h thereafter for a total of 72 h using the Essen IncuCyte Zoom. Counts of Sytox Green and mKate^2 objects per mm^2 were obtained and the lethal fraction calculated as previously described^2. […] The Bliss Independence Model was used to compute expectant cell death of compound+ StcE treatment using normalized AUC (nAUC) values, and deviation from this expectation was used to infer modulation of cell death, as described previously^3.
Measuring cell death using STACK. Follow-up cell death experiments of OVCAR-3^N cells were performed using scalable time-lapse analysis of cell death kinetics (STACK) 2. […]

CD30 (human) = CD30 (human) (UniProt P28908)
CD30 (human), sequence (P28908 19-595): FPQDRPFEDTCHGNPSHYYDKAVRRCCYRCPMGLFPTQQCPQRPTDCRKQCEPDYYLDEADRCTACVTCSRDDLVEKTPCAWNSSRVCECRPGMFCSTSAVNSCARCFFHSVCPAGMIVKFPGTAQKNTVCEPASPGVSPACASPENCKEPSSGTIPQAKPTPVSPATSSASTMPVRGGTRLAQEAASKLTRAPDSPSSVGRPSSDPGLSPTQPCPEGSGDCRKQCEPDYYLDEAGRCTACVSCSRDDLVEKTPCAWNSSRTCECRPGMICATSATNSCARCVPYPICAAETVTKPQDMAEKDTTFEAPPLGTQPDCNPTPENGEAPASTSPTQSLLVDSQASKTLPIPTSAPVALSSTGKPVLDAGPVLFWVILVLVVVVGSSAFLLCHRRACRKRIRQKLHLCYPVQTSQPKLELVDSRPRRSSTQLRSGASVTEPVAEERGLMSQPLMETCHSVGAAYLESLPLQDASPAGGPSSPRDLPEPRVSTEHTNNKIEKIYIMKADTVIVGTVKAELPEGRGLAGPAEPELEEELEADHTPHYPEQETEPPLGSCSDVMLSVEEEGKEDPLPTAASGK

[2] = biological target: human epidermal growth factor receptor 2 (HER2) (human) (UniProt P04626)
CD46 (human) = CD46 (human) (UniProt P15529)
CD46 (human), sequence (P15529 35-392): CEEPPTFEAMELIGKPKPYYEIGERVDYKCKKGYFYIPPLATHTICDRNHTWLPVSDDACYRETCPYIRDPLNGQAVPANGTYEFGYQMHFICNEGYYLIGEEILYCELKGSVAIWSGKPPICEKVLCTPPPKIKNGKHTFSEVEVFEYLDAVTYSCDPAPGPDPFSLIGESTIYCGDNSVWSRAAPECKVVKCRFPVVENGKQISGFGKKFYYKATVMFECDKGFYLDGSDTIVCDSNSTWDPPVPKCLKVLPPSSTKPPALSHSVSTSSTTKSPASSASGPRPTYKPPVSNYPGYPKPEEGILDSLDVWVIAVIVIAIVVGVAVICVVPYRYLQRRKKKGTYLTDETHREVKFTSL

[3] = biological target: CD43 (sialophorin) (human) (UniProt P16150)
CD43 (sialophorin) (human), sequence (P16150 20-400): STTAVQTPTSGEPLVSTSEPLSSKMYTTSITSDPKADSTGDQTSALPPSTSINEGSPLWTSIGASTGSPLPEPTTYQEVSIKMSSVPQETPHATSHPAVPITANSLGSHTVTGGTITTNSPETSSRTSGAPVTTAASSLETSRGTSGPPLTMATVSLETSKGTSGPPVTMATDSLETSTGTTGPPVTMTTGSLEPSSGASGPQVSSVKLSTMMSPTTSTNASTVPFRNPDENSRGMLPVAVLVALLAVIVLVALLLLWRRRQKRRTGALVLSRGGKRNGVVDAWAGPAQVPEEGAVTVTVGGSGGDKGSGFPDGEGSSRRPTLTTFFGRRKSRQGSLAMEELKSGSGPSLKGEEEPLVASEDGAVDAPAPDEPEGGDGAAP

CD29 (human) = CD29 (human) (UniProt P05556)
CD29 (human), sequence (P05556 21-798): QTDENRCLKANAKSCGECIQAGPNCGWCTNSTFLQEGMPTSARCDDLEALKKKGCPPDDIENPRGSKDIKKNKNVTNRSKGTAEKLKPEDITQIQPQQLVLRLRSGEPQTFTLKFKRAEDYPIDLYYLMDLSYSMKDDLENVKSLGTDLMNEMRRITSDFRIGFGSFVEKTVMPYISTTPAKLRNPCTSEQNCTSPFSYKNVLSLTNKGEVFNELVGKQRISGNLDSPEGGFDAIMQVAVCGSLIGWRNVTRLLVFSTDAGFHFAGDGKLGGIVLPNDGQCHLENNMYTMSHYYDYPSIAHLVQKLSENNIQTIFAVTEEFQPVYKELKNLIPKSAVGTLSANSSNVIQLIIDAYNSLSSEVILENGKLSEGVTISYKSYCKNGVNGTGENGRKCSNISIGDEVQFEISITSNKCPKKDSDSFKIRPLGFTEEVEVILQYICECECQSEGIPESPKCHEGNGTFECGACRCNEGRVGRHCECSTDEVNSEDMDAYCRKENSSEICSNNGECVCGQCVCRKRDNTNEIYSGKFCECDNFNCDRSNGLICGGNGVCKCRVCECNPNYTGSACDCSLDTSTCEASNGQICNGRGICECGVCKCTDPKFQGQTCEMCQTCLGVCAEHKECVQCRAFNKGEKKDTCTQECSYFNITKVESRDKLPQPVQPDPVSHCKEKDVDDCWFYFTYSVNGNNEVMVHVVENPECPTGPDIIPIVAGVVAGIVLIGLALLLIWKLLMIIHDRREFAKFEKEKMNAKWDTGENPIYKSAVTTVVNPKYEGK

[4] = biological target: cell surface mucins on HeLa cells
mucin-1 (MUC1) (human) = mucin-1 (MUC1) (human) (UniProt P15941)
mucin-1 (MUC1) (human), sequence (P15941 24-1255): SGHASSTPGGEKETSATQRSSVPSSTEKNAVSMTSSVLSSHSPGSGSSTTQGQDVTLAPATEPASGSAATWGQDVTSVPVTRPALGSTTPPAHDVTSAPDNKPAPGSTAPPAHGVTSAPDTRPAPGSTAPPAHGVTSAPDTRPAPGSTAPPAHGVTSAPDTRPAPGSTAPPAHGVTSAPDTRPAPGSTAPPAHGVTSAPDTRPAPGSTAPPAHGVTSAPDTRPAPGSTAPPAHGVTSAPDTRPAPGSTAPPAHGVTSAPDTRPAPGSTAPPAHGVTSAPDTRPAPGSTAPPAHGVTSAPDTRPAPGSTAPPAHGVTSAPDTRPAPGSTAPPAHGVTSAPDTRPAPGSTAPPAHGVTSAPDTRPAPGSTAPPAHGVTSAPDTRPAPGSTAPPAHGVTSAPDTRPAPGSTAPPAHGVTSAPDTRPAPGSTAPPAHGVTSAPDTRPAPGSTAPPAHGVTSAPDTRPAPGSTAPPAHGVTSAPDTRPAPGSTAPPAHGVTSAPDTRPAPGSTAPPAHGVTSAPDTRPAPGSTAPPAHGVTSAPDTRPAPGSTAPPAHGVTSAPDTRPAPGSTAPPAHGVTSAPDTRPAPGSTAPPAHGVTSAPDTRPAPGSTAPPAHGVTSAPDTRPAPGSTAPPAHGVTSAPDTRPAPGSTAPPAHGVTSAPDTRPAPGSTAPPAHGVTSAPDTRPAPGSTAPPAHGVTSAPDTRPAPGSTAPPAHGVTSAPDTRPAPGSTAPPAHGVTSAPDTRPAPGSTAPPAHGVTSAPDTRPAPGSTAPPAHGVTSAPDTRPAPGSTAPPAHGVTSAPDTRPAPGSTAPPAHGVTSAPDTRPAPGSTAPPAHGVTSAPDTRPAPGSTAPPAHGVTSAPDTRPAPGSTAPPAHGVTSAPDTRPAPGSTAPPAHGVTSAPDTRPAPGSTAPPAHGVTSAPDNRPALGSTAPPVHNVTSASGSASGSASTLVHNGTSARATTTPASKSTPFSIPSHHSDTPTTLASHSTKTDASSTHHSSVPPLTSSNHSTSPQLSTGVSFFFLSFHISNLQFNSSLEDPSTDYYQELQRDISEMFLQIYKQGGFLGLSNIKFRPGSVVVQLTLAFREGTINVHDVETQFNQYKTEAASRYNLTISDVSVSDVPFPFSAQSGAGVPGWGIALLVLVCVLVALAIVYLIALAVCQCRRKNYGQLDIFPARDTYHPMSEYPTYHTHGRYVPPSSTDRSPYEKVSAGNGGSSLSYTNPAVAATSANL

CD236 (human) = CD236 (human) (UniProt P04921)
CD236 (human), sequence (P04921 whole entry): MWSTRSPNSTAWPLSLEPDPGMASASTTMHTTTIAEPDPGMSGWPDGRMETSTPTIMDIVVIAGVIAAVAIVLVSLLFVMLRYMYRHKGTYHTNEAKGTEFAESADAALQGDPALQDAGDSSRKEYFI

CD98 (human), sequence (P08195 103-630): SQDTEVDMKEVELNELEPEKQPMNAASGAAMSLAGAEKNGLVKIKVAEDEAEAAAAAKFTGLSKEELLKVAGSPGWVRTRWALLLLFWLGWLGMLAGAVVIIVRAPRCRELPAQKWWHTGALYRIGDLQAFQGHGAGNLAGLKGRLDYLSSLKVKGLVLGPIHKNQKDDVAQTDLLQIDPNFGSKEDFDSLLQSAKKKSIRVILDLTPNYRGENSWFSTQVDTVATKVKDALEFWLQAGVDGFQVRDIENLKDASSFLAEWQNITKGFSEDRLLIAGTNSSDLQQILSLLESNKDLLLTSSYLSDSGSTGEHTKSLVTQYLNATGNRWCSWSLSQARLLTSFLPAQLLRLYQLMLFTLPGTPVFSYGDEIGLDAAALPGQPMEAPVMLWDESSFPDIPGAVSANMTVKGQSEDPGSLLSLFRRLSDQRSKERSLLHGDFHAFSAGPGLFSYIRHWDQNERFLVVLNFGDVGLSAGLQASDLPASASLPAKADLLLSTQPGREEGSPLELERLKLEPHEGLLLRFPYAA
Annexin A1 (ANXA1) (human), sequence (P04083 2-346): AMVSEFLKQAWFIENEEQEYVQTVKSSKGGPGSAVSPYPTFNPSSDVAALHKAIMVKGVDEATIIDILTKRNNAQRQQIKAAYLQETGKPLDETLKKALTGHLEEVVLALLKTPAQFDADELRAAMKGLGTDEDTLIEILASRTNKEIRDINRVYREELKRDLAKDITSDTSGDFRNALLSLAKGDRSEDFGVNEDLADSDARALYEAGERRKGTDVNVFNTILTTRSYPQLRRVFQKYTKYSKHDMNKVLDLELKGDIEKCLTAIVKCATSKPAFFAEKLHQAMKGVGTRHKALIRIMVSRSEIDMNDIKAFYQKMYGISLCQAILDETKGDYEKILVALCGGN

Isotype control antibody, clone MOPC-21 (BioLegend)
Maximum MFI observed in binding assay (K562^HER2 cell surface): 0.1 AU

anti-Annexin A1 antibody, clone 74/3 (BioLegend)
Maximum MFI observed in binding assay [1]: 1.3 AU

anti-CD98 antibody, clone MEM-108 (BioLegend)
Maximum MFI observed in binding assay (CD98 (human)): 234 AU

COC(=O)c1ccc([C@@H]2c3[nH]c4ccccc4c3C[C@@H](C(=O)OC)N2C(=O)CCl)cc1 [RSL3]
Enhancement of ferroptosis by StcE co-treatment (OVCAR-3 cells; dose response ± 50 nM StcE, OVCAR-3): no enhancement of ferroptosis

anti-CD30 antibody, clone BY88 (BioLegend)
Maximum MFI observed in binding assay (CD30 (human)): 9.8 AU

Mouse IgG1 anti-human CD340 (erbB2/HER-2) antibody, clone 24D2 (BioLegend)
Maximum MFI observed in binding assay [2]: 311 AU

anti-CD46 antibody, clone TRA-2-10 (BioLegend)
Maximum MFI observed in binding assay (CD46 (human)): 64.9 AU

anti-CD43 antibody, clone CD43-10G7 (BioLegend)
Maximum MFI observed in binding assay [3]: 160 AU

anti-CD29 antibody, clone P5D2 (BioLegend)
Maximum MFI observed in binding assay (CD29 (human)): 23.7 AU

CCOC(=O)c1ccc(NC2CCCCC2)c(N)c1 [ferrostatin-1]
Suppression of erastin2 + StcE induced ferroptosis (OVCAR-3 cells; 1 μM ferrostatin-1): fully suppressed

ddStcE^W366A (ΔC, ΔINS and W366A), engineered StcE (from UniProt O82882 36-803) (enzyme)
Kd [4]: 2000 nM

Anti-MUC1/episialin antibody, clone 214D4 (EMD Millipore)
Maximum MFI observed in binding assay (mucin-1 (MUC1) (human)): 328 AU

anti-CD236 antibody, clone QA20A41 (BioLegend)
Maximum MFI observed in binding assay (CD236 (human)): 188 AU
